Experiments:
hα9/mL1-EGFP = biological target: T1, hα9/mL1-EGFP (human, UniProt Q13797 30-1035); assay: Cell ELISA on transiently expressing CHO cells
T1 construct: an offset must be applied; also called L1 loop region variant of human α9-EGFP; not shown: EGFP from pEGFP-N1 vector (Clontech) fused to the C-terminal (cytoplasmic region)
T1 chain: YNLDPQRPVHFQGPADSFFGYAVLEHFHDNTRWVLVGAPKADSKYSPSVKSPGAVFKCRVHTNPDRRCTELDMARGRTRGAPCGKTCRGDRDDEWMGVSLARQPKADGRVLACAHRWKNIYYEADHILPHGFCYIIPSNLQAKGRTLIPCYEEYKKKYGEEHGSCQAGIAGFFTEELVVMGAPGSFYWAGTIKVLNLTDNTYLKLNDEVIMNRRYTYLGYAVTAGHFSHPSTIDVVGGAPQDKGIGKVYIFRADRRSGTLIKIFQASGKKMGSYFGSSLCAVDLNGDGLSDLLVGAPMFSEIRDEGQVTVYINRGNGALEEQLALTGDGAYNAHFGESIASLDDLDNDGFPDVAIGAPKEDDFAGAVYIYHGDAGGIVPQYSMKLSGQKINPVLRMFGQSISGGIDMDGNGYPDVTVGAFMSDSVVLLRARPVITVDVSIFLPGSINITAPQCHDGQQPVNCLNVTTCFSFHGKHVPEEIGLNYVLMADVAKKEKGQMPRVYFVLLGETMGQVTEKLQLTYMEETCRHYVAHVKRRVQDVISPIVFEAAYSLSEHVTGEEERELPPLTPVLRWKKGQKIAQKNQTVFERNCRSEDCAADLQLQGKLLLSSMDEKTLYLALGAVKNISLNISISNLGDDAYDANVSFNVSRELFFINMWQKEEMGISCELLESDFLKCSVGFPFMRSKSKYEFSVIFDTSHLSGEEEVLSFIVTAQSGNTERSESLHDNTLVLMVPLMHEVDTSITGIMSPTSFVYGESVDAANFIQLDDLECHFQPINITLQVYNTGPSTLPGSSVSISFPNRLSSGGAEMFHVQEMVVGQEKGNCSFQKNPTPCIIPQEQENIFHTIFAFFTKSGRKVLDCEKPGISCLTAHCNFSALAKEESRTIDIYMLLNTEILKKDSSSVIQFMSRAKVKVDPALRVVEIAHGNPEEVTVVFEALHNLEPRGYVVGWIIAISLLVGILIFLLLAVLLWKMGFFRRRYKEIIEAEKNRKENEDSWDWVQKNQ
Method: CHO/mα9 and CHO were seeded on a 96 well plate (costar) at 2×10⁴ cells/100 μL/well, and incubated overnight at 37° C., 5% CO₂. The medium was suctioned, and the cells were washed with PBS, and reacted with phage antibody diluted with 1% BSA/PBS. The detection was performed by using horse-radish peroxidase (HRP)-labeled anti-M13 antibody (Amersham) and TMB (SIGMA) in combination. The absorbance at wavelengths 450 nm and 650 nm was measured by a microplate reader (Molecular Devices).
SW480/mα9, SW480/hα9 and SW480 were used as antigens, 1% BSA/PBS containing 5% FBS was used as a dilution solution, an HRP-labeled anti-mouse IgG antibody (ZYMED) was used for detection, and the rest was performed under the same conditions as in Example 4.
Next, analysis by Cell ELISA was performed. Various cells after about 24 hr from gene transfection were collected, and seeded on a 96 well plate at 2×10⁴ cells/100 μL/well. The rest was performed under the same conditions as in Example 11.

mouse α4 integrin = biological target: T2, mouse α4 integrin (mouse, UniProt Q00651 41-1039); assay: flow cytometry on CHO/mα4
T2 construct: whole, on cells; Control antigen; also called CHO/mα4
T2 sequence (looked up): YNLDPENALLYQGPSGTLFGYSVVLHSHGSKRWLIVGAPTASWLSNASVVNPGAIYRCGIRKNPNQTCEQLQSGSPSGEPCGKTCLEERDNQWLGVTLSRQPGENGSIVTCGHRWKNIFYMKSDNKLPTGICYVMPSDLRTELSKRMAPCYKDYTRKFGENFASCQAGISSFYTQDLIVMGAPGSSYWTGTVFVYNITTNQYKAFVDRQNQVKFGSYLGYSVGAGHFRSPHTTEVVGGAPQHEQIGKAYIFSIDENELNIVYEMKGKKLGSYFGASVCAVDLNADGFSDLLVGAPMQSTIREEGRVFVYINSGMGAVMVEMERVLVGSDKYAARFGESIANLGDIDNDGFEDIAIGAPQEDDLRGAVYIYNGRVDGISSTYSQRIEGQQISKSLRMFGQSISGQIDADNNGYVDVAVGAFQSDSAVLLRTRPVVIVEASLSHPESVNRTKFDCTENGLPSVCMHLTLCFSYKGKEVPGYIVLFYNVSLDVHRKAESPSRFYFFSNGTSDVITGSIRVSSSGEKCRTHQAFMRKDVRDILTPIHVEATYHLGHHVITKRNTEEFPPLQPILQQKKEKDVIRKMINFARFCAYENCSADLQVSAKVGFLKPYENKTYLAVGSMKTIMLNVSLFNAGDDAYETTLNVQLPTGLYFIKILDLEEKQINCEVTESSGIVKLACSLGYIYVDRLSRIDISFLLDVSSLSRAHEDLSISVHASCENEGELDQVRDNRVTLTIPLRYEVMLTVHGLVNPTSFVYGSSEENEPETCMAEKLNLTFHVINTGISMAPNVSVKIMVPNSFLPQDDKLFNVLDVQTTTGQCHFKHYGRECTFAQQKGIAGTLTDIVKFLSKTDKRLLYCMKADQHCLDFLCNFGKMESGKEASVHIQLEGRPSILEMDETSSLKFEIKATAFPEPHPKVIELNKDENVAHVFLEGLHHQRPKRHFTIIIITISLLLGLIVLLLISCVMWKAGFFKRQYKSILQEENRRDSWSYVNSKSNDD
Method: As a result, the reactivity with mouse α9 and human α9 was confirmed. Although the reactivity with each of CHO and CHO/mα4 was also assessed in the same manner, the reactivity with mouse α4 was not observed (FIG. 6).

binding result (hα9/mL1-EGFP): binds
binding result (mouse α4 integrin): no binding
B1: MA9-413 scFv-Fc (Fc fusion)
scFv: EVQLVESGGGVVRPGGSLRLSCAASGFAFGDYGMSWVRQAPGKGLEWVSGINWNGGSTGYADSVKGRFTTSRDNAKNSLYLQMNSLRAEDTALYYCARDENYDILTGYYYYGMDVWGQGTTVTVSSGGGGSGGGGSGGGGSQSVVTQPPSVSAAPGQKVTISCSGSSSNIGNNYVSWYQQLPGTAPKLLIYDNNKRPSGIPDRFSASKSGTSATLGITGLQTGDEADYYCGTWDSSLTVWAFGGGTKLTVLG
notes: Divalent scFv-Fc with mouse IgG1 Fc, expressed in CHO-DG44; also called ANM-2; not shown: Fc region of mouse IgG1 and its junction to the scFv

Reference: patent publication US20110014213A1 (JURIDICAL FDN THE CHEMO SERO THERAP RES INS, published 2011)
